{
  "source": "paper PMC10790359",
  "about": "“System for Self-excited Targeted Photodynamic Therapy Based on the Multimodal Protein DARP-NanoLuc-SOPP3” (Acta Naturae, 2023)",
  "target": "T1, HER2 (human epidermal growth factor receptor type II) (human (endogenous in SKOV3.ip1), UniProt P04626 23-1255)",
  "T1 construct": "HER2, human epidermal growth factor receptor type II, on the surface of human ovarian adenocarcinoma SKOV3.ip1 / SKOV3.ip1-Kat cells; also called HER2 receptor; HER2 tumor marker; source: endogenous, on SKOV3.ip1 and SKOV3.ip1-Kat cells (HER2 overexpression)",
  "test": "flow cytometry on cells; cells incubated with 300 nM DARP-NanoLuc-SOPP3-AF488 conjugate in complete growth medium for 10 min at 37°C, washed thrice with phosphate-buffered saline; HER2-positive SKOV3.ip1-Kat cells; control: unlabelled cells",
  "settings": "one partner purified",
  "data": [
    {"binder": "DARP-NanoLuc-SOPP3 (designed binder, conjugated with N-hydroxysuccinimide esters of dyes (AF488 or Cy5.5) for flow cytometry and confocal microscopy; legends and results call the green conjugate FITC; labelled residues not stated, DARPin_9-29, HER2-specific targeting module; NanoLuc luciferase (engineered), amplified from plasmid pNL1.1.CMV (Promega); SOPP3 phototoxic flavoprotein (a miniSOG analogue, engineered), amplified from pET24-SOPP3; vector-derived residues between SOPP3 and the C-terminal HHHHHH of the printed chain; cytotoxicity assays used the protein without a dye; also called DARPin-NanoLuc-SOPP3; …) MDLGKKLLEAARAGQDDEVRILMANGADVNAHDFYGITPLHLAANFGHLEIVEVLLKHGADVNAFDYDNTPLHLAADAGHLEIVEVLLKYGADVNASDRDGHTPLHLAAREGHLEIVEVLLKNGADVNAQDKFGKTAFDISIDNGNEDLAEILQEFPKPSTPPGSSGGAMVFTLEDFVGDWRQTAGYNLDQVLEQGGVSSLFQNLGVSVTPIQRIVLSGENGLKIDIHVIIPYEGLSGDQMGQIEKIFKVVYPVDDHHFKVILHYGTLVIDGVTPNMIDYFGRPYEGIAVFDGKKITVTGTLWNGNKIIDERLINPDGSLLFRVTINGVTGWRLCERILAGGGGSGSEKSFVITDPRLPDNPIIFASDGFLELTEYSREEILGRNGRFLQGPETDQATVQKIRDAIRDQREITVQLINYTKSGKKFLNLLNLQPIRDQKGELQAFIGVQVDGKLAAALE", "values": [
      {"measurement": "fold shift in the median fluorescence of conjugate-treated cells compared to the control", "value": "~100", "unit": "fold"}
    ]}
  ]
}
